Test in all cases: BLI
(In general: Biolayer interferometry detects binding as a change in optical thickness at a sensor tip.)

In experiment [1] the target is R11K-PMD (R11K modified with NHS-PEG4-methyl while protected by S2X259) (SARS-CoV-2 Wuhan Hu-1).
Experiment [2] has as its target R11K-CL (R11K cross-linked with Bis-NHS-PEG5 while protected by S2X259) (SARS-CoV-2 Wuhan Hu-1).
Experiment [3] concerns the target R11K (RBD 319-533 with 11 added lysines and the repackaging substitutions Y365F, F392W, V395I) (SARS-CoV-2 Wuhan Hu-1).
The target in experiment [4] is R11K (RBD with 11 additional lysines and three repackaging substitutions) (SARS-CoV-2 Wuhan Hu-1).
Experiment [5] has as its target R11K-CL (R11K cross-linked with Bis-NHS-PEG5 while protected on S2X259 resin) (SARS-CoV-2 Wuhan Hu-1).
Experiment [6] has as its target R11K-PMD (R11K modified with NHS-PEG4-methyl while protected on S2X259 resin) (SARS-CoV-2 Wuhan Hu-1).

This note sets out measurements from publication PMC11503491.

One may read the koff as a measure of how fast the partners let go of each other. A lower koff goes with slow dissociation. S2X259 IgG (antibody): the koff was found to be 0.00085 s⁻¹ in experiment [1] and 0.001 s⁻¹ in experiment [2]. As for S2X259 (class 4 RBD-directed antibody), the koff in experiment [3] turned out to be 0.0021 s⁻¹. One may read the Kd as a measure of binding affinity in units of concentration. High values mean lower affinity, low ones higher affinity. In experiment [4], “fragment antigen-binding region (Fab) of S2X259” had a Kd of 1.5 nM.

In experiment [3], CB6 (class 1 RBD-directed antibody) displayed a koff of 0.037 s⁻¹. On to S309 (class 3 RBD-directed antibody), for which the koff in experiment [5] was 0.0021 s⁻¹; in experiment [3], 0.00014 s⁻¹; in experiment [6], 0.0019 s⁻¹.

In experiment [3], CR3022 (class 4 RBD-directed antibody) yielded a koff of 0.059 s⁻¹.
